Assay results taken from US20240254205A1 (UNIVERSITY OF ROCHESTER, published 2024).
Substitutions are numbered along the chain they refer to. Read-outs that look alike come from different tables or passages of the source.

B1: 1092E10 (antibody, V domains shown)
VH: EVQLVESGGGSVKPGGSLRLSCAASGFTFTNSWMSWVRQAPGKGLEWVGRIKSKSDGGTTDYAAPVKGRFSISRDDSKSTLFLQMNSLKTEDTAVYYCSAAPFTESNGYKSWDYLYGMDVWGQGTTVTVSS
VL: SYELTQPPSVSVSPGQTATITCSGDKLGDKFASWYQQQPGQSPVLVIYQHTKRPSGIPERFSGSISGSTATLTISGTQAVDEADYYCQAWDSNSYVFGAGTKVTVL
notes: also called 1092E01
B2: 1086C12 (antibody, V domains shown)
VH: VQLVESGGGVVQPGRSLRLSCVASGFSLSTYGMLWVRQAPGKGLVWVALISYEEGSNKKYADSVKGRFTISRDNSRNTLYLQMSSLTSDDTGVYYCARDAGCDSVGYYPGRLWGQGTLVTVSS
VL: QSVLTQPPSASGTPGQTVTISCSGTSSNIGSNFVYWYQQLPGTAPKLLIFRNNQRPSGVPDRFSGSKSGTSASLAVSGLRSEDEAEYYCAAWDDSLSGHLVFGGGTKLTVL
B3: 1122C6 (antibody, V domains shown)
VH: QVQLQESGPGLVKPSETLSLTCTVSGGSISSYYWSWIRQPPGKAVEWIGYIFDGGSTDYNPSLKSRVAMSVDASENQFSLKLASVTAADTAVYYCARYRVSGNYYDTPWFDPWGQGLLVTVSS
VL: SYELTQPPSLSASPGQTARITCSGDALPKQDVYWYQQKPGQAPLLVIYKDTERPSGIPERFSGSRSGTTVTLIISGVQAEDEADYYCQSAASSYGYVVFGGGTKLTVL
B4: KPF2/1092D4 (antibody, V domains shown)
VH: EVQLLESGGQLVQPGGSLRLSCAVSGFTFSRYAMYWVRQAPGKGLEWVSIISGDGGVTFYADSVKGRFTISRDNSKNTLFLQMNSLRADDTAVYYCAKDNQDLDLWSGSYKGTFDDWGQGTLVTVSS
VL: NFMLTQPHSVSGSPGKTVSISCTRSSGIIASNHVQWYQQRPGSAPTTVIFEDNQRPSGVPDRFSGSIDSSSNSASLTISGLKTEDEADYYCQSYDSSRYWVFGGGTKLTVL
B5: 1122C7 (antibody, V domains shown)
VH: B4 VH with R31S, A40S, F80Y, D89E, N100K, D116E
VL: B4 VL with H33Y

Tests used:
[1] = molecular target: T1, recombinant IBV NA protein B/Hong Kong/330/2001 (Victoria lineage) (influenza B virus B/Hong Kong/330/2001)
[2] = molecular target: T2, NA of B/Lee/1940 on infected MDCK cells (influenza B virus B/Lee/1940, UniProt P03474 1-466); experiment: immunofluorescence on infected MDCK cells, hMAb at 1 µg/ml
T2 construct: whole, on cells

[3] = molecular target: T1, recombinant IBV NA protein B/Hong …; experiment: avidity ELISA with urea, hMAb at 1 µg/ml
[4] = molecular target: T2, NA of B/Lee/1940 on infected MDCK cells; experiment: immunofluorescence (IFA) on infected MDCK cells
[5] = molecular target: T1, recombinant IBV NA protein B/Hong …; experiment: surface plasmon resonance, antibody on the chip, NA flowed over
[6] = molecular target: T1, recombinant IBV NA protein B/Hong …; remark: listed apart in the source

Binder	EC50 (read off the curve) [1] [µg/mL]	binding result [2]	binding activity maintained in 8 M urea [3] [%]	binding result [4]	Kd [5] [nM]	Kd [6] [nM]	koff [6] [s⁻¹]	kon [6] [M⁻¹ s⁻¹]
B1	~0.05	binds	> 75					
B2	~0.05	binds	> 75					
B3				no binding (tested: 1 µg/ml)				
B4	~0.05	binds	> 75		0.1	0.185	4.86e-05	264000
B5		binds	> 75					
